In assay [1] the target is FITC-labeled 45-mer peptide derived from the C-terminal region of IKKβ. The experiment in a line: fluorescence polarisation; fluorescence anisotropy binding assay with the FITC-labeled IKKβ 45-mer peptide and NEMO proteins; conditions not told (refs 13, 23).
For assay [2], the target named is 45-mer peptide of IKKβ (as used in the CD experiments). The experiment in a line: circular dichroism (spectra and thermal denaturation with and without ligand); 10 µM NEMO protein with or without equimolar IKKβ 45-mer peptide, incubated 1 h at room temperature; 20 mM sodium phosphate, 500 mM NaCl, pH 7.4; spectra at 25 °C, melt 10 to 70 °C at 222 nm. In general terms: Circular dichroism is the unequal absorption of left and right circularly polarised light.

Chain of full-length WT NEMO (aa 1–419), bacterially expressed (Q9Y6K9 whole entry, the tested form may be a part): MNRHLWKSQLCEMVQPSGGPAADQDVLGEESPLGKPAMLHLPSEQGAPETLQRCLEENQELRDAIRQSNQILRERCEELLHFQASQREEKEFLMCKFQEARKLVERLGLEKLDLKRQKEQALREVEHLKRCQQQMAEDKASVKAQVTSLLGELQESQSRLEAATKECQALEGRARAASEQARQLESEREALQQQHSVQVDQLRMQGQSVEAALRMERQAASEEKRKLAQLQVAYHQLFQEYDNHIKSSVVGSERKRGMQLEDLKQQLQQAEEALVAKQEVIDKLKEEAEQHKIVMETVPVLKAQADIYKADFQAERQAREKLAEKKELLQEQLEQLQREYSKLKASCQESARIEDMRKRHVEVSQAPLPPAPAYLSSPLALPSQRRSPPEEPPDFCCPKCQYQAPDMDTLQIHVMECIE

For “NEMO 1–419 OPTN-IVD, bacterially expressed (from UniProt Q9Y6K9 1-419) (natural protein)”, the Kd (usually the free concentration of one partner at which half of the binding sites on the other are occupied at equilibrium, for simple one-to-one binding) in assay [1] was found to be 33 nM. This substance displayed an increase in Tm with equimolar peptide in assay [2] of 5 °C.

Take “full-length WT NEMO (aa 1–419), bacterially expressed (from UniProt Q9Y6K9 1-419) (natural protein)”: in assay [1], the Kd was found to be 4.7 nM. This substance registered an increase in Tm with equimolar peptide in assay [2] of 3 °C.
